Experimental data from patent US8076094.

How the values were obtained:
[1] = target: histone H3 in nucleosomes purified from HeLa cells (UniProt P68431)
GST-H3 1-15 T11A = GST-H3 1-15 T11A (UniProt P68431)
[2] = test system: GST control protein [GST: P08515]
GST-H3 1-44 = GST-H3 1-44 (UniProt P68431)

Row | Substance | phosphorylation in in vitro kinase assay, Western blot with α-phosphoH3T11 [1] | phosphorylation in in vitro kinase assay (GST-H3 1-15 T11A) | phosphorylation in in vitro kinase assay (32P, SDS-PAGE, autoradiography) [2] | phosphorylation in in vitro kinase assay (32P, SDS-PAGE, autoradiography) (GST-H3 1-44)
1 | purified recombinant PRK1 (ProQinase GmbH) | PRK1 phosphorylates nucleosomes at H3T11 | mutation of threonine 11 to alanine in H3 1-15 (H3 1-15 T11A) abolishes phosphorylation | – | –
2 | Myc-PRK1, immunoprecipitated from 293 cell lysates | – | – | The GST control protein is not phosphorylated, thus demonstrating specificity | GST-H3 1-44 is phosphorylated by PRK1
